US20180222992A1 (Hoffmann-La Roche, published 2018)
Each block holds one binder with its values, some of them ahead of it.

How the values were obtained:
[1] = target: A-beta (human); assay: cell-based or functional assay
[2] = target: T1, human transferrin receptor (human, UniProt P02786 89-760); assay: BIAcore; after 14 days, pH 6.0, 40° C., His/NaCl buffer, relative to untreated control
T1 construct: also called human TfR; Recombinant His6-tagged human transferrin receptor (R&D systems, cat. no 2474-TR-050)
Protocol: (§1) After incubation ended, samples were analyzed for relative active concentration (BIAcore), aggregation (SEC) and fragmentation (capillary electrophoresis or SDS-PAGE) and compared with the untreated control.

[3] = target: T2, A-beta peptide (1-40) (human); assay: as above
T2 construct: also called Aβ(1-40); Aβ40
Protocol: as §1

[4] = target: T1, human transferrin receptor; assay: BIAcore; after 14 days, pH 7.4, 37° C., PBS buffer, relative to untreated control
Protocol: as §1

[5] = target: T2, A-beta peptide (1-40); assay: as above
Protocol: as §1

T1 sequence (P02786 89-760 limits assumed): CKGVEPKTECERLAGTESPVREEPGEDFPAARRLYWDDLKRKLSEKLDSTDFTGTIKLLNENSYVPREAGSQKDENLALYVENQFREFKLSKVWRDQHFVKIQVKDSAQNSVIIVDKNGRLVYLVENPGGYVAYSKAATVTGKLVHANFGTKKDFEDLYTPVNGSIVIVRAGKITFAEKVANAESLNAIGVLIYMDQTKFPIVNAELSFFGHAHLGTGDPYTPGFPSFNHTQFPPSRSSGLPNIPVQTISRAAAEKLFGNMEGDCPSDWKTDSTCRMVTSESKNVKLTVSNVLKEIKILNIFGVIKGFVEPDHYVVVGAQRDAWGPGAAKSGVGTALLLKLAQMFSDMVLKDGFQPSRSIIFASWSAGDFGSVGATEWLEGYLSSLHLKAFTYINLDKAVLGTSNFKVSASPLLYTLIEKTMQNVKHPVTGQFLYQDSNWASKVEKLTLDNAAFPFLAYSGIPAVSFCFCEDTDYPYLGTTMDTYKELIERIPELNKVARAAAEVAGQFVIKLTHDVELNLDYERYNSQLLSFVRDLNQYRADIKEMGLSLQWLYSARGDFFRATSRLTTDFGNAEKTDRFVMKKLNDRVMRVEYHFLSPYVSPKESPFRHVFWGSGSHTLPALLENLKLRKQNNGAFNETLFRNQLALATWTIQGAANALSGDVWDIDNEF

- IL-8 [ng/ml], U937-cell assay [1]: 7 ng/mL
- IP-10 [ng/ml], U937-cell assay [1]: 5.3 ng/mL
- relative human transferrin receptor binding by BIAcore [2]: 101%
- relative A-beta peptide (1-40) binding by BIAcore [3]: 87%
- relative human transferrin receptor binding by BIAcore [4]: 78%
- relative A-beta peptide (1-40) binding by BIAcore [5]: 82%
B1: Antibody 0012 (bispecific antibody, human IgG1, kappa)
chain 1: DIVLTQSPATLSLSPGERATLSCRASQSVSSSYLAWYQQKPGQAPRLLIYGASSRATGVPARFSGSGSGTDFTLTISSLEPEDFATYYCLQIYNMPITFGQGTKVEIKRTVAAPSVFIFPPSDRKLKSGTASVVCLLNNFYPREAKVQWKVDNALQSGNSQESVTEQDSKDSTYSLSSTLTLSKADYEKHKVYACEVTHQGLSSPVTKSFNRGEC
chain 2: not shown
chain 3: QSMQESGPGLVKPSQTLSLTCTVSGFSLSSYAMSWIRQHPGKGLEWIGYIWSGGSTDYASWAKSRVTISKTSTTVSLKLSSVTAADTAVYYCARRYGTSYPDYGDASGFDPWGQGTLVTVSSASVAAPSVFIFPPSDEQLKSGTASVVCLLNNFYPREAKVQWKVDNALQSGNSQESVTEQDSKDSTYSLSSTLTLSKADYEKHKVYACEVTHQGLSSPVTKSFNRGEC
chain 4: not shown
notes: knob-into-hole; The anti-A-beta light chain occurs twice

- IL-8 [ng/ml], U937-cell assay [1]: 7 ng/mL
- IP-10 [ng/ml], U937-cell assay [1]: 4.5 ng/mL
B2: Antibody 0020 (bispecific antibody, human IgG1, kappa)
chain 1: B1 chain 1
chain 2: not shown
chain 3: not shown

- IP-10 [ng/ml], U937-cell assay [1]: 5 ng/mL
- relative human transferrin receptor binding by BIAcore [2]: 91%
- relative A-beta peptide (1-40) binding by BIAcore [3]: 96%
- relative human transferrin receptor binding by BIAcore [4]: 85%
- relative A-beta peptide (1-40) binding by BIAcore [5]: 86%
B3: Antibody 0015 (bispecific antibody)
light 1: B1 chain 1
heavy 1: not shown
light 2: AIQLTQSPSSLSASVGDRVTITCRASQSISSYLAWYQQKPGKAPKLLIYRASTLASGVPSRFSGSGSGTDFTLTISSLQPEDFATYYCQQNYASSNVDNTFGGGTKVEIKSSASTKGPSVFPLAPSSKSTSGGTAALGCLVKDYFPEPVTVSWNSGALTSGVHTFPAVLQSSGLYSLSSVVTVPSSSLGTQTYICNVNHKPSNTKVDKKVEPKSC
heavy 2: not shown
notes: knob-into-hole

- IL-8 [ng/ml], U937-cell assay [1]: 8 ng/mL
- IP-10 [ng/ml], U937-cell assay [1]: 5.2 ng/mL
- relative human transferrin receptor binding by BIAcore [2]: 93%
- relative A-beta peptide (1-40) binding by BIAcore [3]: 97%
- relative human transferrin receptor binding by BIAcore [4]: 90%
- relative A-beta peptide (1-40) binding by BIAcore [5]: 101%
B4: Antibody 0024 (bispecific antibody, human IgG1, kappa)
chain 1: not shown
chain 2: not shown
chain 3: B3 light 2
chain 4: not shown
notes: as for B1
